± gives the standard deviation of the averaged measurements.
Test system: ATP
Test: switch fluorescence ratio, 500 uM ATP over buffer (Cy3 cluster intensity, sum of 5 cycles each) (fold (ratio)); higher = stronger signal-on switching upon ATP binding; sequences stand for … in TCGTCGGCAGCGTCAGATGTGTATAAGAGACAGTTTTTTTTTTTTTTTTTTTTTTTTT…TC
Details: aptamer strand: ATP DNA aptamer (quencher-CACCTGGGGGAGTATTGCGGAGGAAGG + anchor), 100 nM annealed; ATP concentration: 500 uM
Method in brief: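 Per cluster, summed Cy3 intensity from the target cycles was divided by that from the buffer cycles to give the fluorescence ratio, then averaged per switch-domain sequence. Clusters outside 100-1000 RFU were excluded. The Cy3-labelled switching-strand clusters, on a modified Illumina MiSeq flow-cell, were annealed to 100 nM quencher-labelled ATP aptamer and imaged in selection buffer, then after 15 min with 500 uM ATP at 22 °C, for five cycles with NaOH stripping and re-annealing between them.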
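Note: ATP exposure 15 min at 22 °C before imaging.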

Sequence | switch fluorescence ratio
CGTGATTCGC | 1.018 ± 0.0023
CGTGCAAAGG | 1.05 ± 0.013
CGTGCCATAG | 1 ± 0.015
CGTGCCCTGC | 1.06 ± 0.028
CGTGCGCATA | 3.77 ± 1.4
CGTGCGTCGG | 1.01 ± 0.017
CGTGCGTGCT | 1.01 ± 0.023
CGTGCTGGCA | 1.019 ± 0.0064
CGTGCTGGTT | 1.01 ± 0.061
CGTGCTGTA | 1.046 ± 0.0054
CGTGGAGCGA | 1.04 ± 0.02
CGTGGAGGGA | 1.01 ± 0.027
CGTGGATACT | 1.23 ± 0.057
CGTGGATAGC | 1.02 ± 0.055
CGTGGATGAC | 0.9939 ± 0.0096
CGTGGATTCC | 1.03 ± 0.011
CGTGGATTTA | 0.983 ± 0.011
CGTGGCAGGA | 1.03 ± 0.021
CGTGGGGGAT | 1.01 ± 0.029
CGTGGGGTGG | 1.02 ± 0.045
CGTGGGTTCG | 0.961 ± 0.025
CGTGGTGTGT | 0.992 ± 0.0011
CGTGGTGTTG | 0.991 ± 0.015
CGTGGTTAAG | 1.01 ± 0.038
CGTGGTTCAG | 0.996 ± 0.014

Sequence | switch fluorescence ratio
CGTGTCCGGT | 1.01 ± 0.043
CGTGTGATGC | 1.05 ± 0.015
CGTGTGATGT | 0.973 ± 0.03
CGTGTGGCGT | 1.05 ± 0.016
CGTGTGGCTG | 0.992 ± 0.034
CGTGTGGGGA | 1.02 ± 0.045
CGTGTTAATT | 0.982 ± 0.034
CGTGTTGTTG | 1.02 ± 0.022
CGTTAAACGT | 1.01 ± 0.036
CGTTAATTTT | 0.983 ± 0.026
CGTTACTACG | 1.06 ± 0.028
CGTTACTGGT | 0.973 ± 0.016
CGTTAGCGGG | 1 ± 0.018
CGTTAGGCGC | 0.985 ± 0.013
CGTTAGGGCA | 0.979 ± 0.02
CGTTAGTATT | 0.9936 ± 0.00056
CGTTAGTGTA | 0.99 ± 0.023
CGTTATATAA | 1.04 ± 0.014
CGTTATCGTG | 0.9826 ± 0.0061
CGTTATGGGC | 0.979 ± 0.022
CGTTATTCAC | 1.03 ± 0.036
CGTTATTGAG | 0.95 ± 0.016
CGTTATTGGC | 1.02 ± 0.034
CGTTATTTAT | 0.9985 ± 0.0089
CGTTCAACGA | 1 ± 0.029

Sequence | switch fluorescence ratio
CGTTCACCGG | 0.959 ± 0.049
CGTTCACCTG | 0.996 ± 0.038
CGTTCCAGGC | 1.083 ± 0.0064
CGTTCCCCCA | 1.355 ± 0.013
CGTTCGCCGG | 0.99801 ± 8.6e-05
CGTTCTAGTG | 0.974 ± 0.011
CGTTCTGGGG | 0.984 ± 0.05
CGTTCTGGTC | 0.999 ± 0.046
CGTTGAATAA | 1.017 ± 0.0089
CGTTGATGCT | 1.01 ± 0.02
CGTTGCACCT | 0.952 ± 0.051
CGTTGCAGGG | 0.984 ± 0.024
CGTTGCTATG | 1.01 ± 0.028
CGTTGCTTTG | 0.9869 ± 0.0016
CGTTGGAAGG | 0.985 ± 0.021
CGTTGGCGTG | 0.947 ± 0.036
CGTTGGGAAG | 0.9779 ± 0.0087
CGTTGGGTGG | 1.02 ± 0.076
CGTTGTAAAT | 0.9823 ± 0.0071
CGTTGTATAG | 0.971 ± 0.016
CGTTGTGGAA | 1.006 ± 0.0056
CGTTGTTCGA | 1.02 ± 0.012
CGTTGTTGAA | 0.968 ± 0.036
CGTTGTTGGT | 1.015 ± 0.009
CGTTTAACAC | 0.997 ± 0.02

Sequence | switch fluorescence ratio
CGTTTAGGCA | 1.02 ± 0.024
CGTTTATTGA | 1.004 ± 0.0086
CGTTTCAAGG | 0.975 ± 0.016
CGTTTCGTTG | 0.9635 ± 0.0019
CGTTTGACCT | 1.03 ± 0.026
CGTTTGAGTG | 1.02 ± 0.023
CGTTTGGGCA | 1.01 ± 0.017
CGTTTGGGTC | 1.01 ± 0.031
CGTTTGGGTG | 1.02 ± 0.055
CGTTTGTATC | 1.02 ± 0.022
CGTTTGTCGG | 1.01 ± 0.059
CGTTTGTCGT | 1.04 ± 0.031
CGTTTGTCTA | 1.01 ± 0.051
CGTTTGTTTT | 1 ± 0.041
CGTTTTATTG | 0.99 ± 0.049
CGTTTTGCAG | 1.03 ± 0.032
CGTTTTGCAT | 1.09 ± 0.11
CGTTTTGTTA | 0.977 ± 0.028
CGTTTTGTTG | 0.998 ± 0.014
CGTTTTTAAA | 1.02 ± 0.04
CGTTTTTACA | 1 ± 0.015
CGTTTTTATT | 1.01 ± 0.015
CGTTTTTCGT | 0.9779 ± 0.0038
CGTTTTTGGA | 0.966 ± 0.018
CGTTTTTGTT | 1 ± 0.025

Sequence | switch fluorescence ratio
CGTTTTTTCG | 1 ± 0.075
CGTTTTTTCT | 0.974 ± 0.015
CGTTTTTTTA | 0.992 ± 0.018
CGTTTTTTTC | 1.007 ± 0.01
CTAAAAGAGG | 0.997 ± 0.019
CTAAAAGGGG | 1.02 ± 0.021
CTAAAGTACT | 1.11 ± 0.041
CTAAATATTG | 0.989 ± 0.015
CTAACGCGCA | 1.11 ± 0.0043
CTAAGCCCGG | 1 ± 0.011
CTAAGGGAAG | 0.9781 ± 0.00035
CTAAGTATGG | 0.9938 ± 0.0096
CTAATAGTTT | 1 ± 0.032
CTAATATTAA | 0.999 ± 0.018
CTAATCGCTG | 1.05 ± 0.034
CTAATTAGAT | 1 ± 0.022
CTAATTATGA | 1.01 ± 0.048
CTAATTCTG | 0.98 ± 0.018
CTAATTGCGG | 1.01 ± 0.013
CTAATTGTTT | 0.973 ± 0.025
CTAATTTACA | 1.081 ± 0.0097
CTAATTTGCT | 1.04 ± 0.056
CTACAAAGGG | 1.005 ± 0.0037
CTACAGGGGG | 1.08 ± 0.018
CTACGATCGA | 1.02 ± 0.015

Sequence | switch fluorescence ratio
CTACGGGCTG | 0.9898 ± 0.0069
CTACTTTAGA | 0.993 ± 0.036
CTAGAAAGGG | 0.999 ± 0.02
CTAGAAGGCG | 1.02 ± 0.052
CTAGAATAGG | 0.985 ± 0.028
CTAGACAGTT | 0.997 ± 0.02
CTAGAGGCTG | 1.03 ± 0.073
CTAGAGGGAT | 1.02 ± 0.038
CTAGAGGGTA | 0.98923 ± 0.00094
CTAGATTCGT | 0.996 ± 0.017
CTAGCGAGGG | 1.01 ± 0.014
CTAGCGGCCA | 0.991 ± 0.012
CTAGCGGGGG | 0.993 ± 0.034
CTAGCTATGT | 1 ± 0.067
CTAGGAGTTT | 0.999 ± 0.011
CTAGGCAATG | 1.44 ± 0.67
CTAGGCCTGG | 1.013 ± 0.0081
CTAGGGGACG | 1.03 ± 0.032
CTAGGTAACG | 1.02 ± 0.033
CTAGGTCGGC | 0.994 ± 0.042
CTAGGTGGCT | 1.02 ± 0.073
CTAGGTGTG | 1.01 ± 0.082
CTAGGTTATG | 0.978 ± 0.01
CTAGGTTGAG | 0.983 ± 0.019
CTAGTAGGGG | 0.984 ± 0.022

Sequence | switch fluorescence ratio
CTAGTATATT | 0.993 ± 0.025
CTAGTCATGC | 1.06 ± 0.0097
CTAGTGCCAG | 1.016 ± 0.0069
CTAGTGCTTG | 1.008 ± 0.0032
CTAGTGGGGA | 1.01 ± 0.017
CTAGTGTCTC | 0.989 ± 0.025
CTAGTTCGTC | 0.972 ± 0.12
CTATAAAGTT | 0.979 ± 0.024
CTATAATAGG | 0.961 ± 0.01
CTATAATGAG | 0.9963 ± 0.0014
CTATACGGAG | 1.09 ± 0.13
CTATACGGTT | 0.983 ± 0.03
CTATAGAAAT | 0.9991 ± 0.0091
CTATATGTTG | 0.985 ± 0.053
CTATATTAGG | 0.997 ± 0.032
CTATCGTGGT | 0.9554 ± 0.0033
CTATGATTTG | 0.9976 ± 0.0042
CTATGCGTAC | 3.51 ± 0.89
CTATGGGATT | 0.983 ± 0.022
CTATGTATTG | 0.9695 ± 0.0096
CTATTAATGT | 0.989 ± 0.028
CTATTAGGTA | 0.977 ± 0.0046
CTATTCCACC | 1.02 ± 0.023
CTATTGGGTT | 1.02 ± 0.016
CTATTTCGGG | 0.979 ± 0.052

Sequence | switch fluorescence ratio
CTCAAAAGTT | 1.01 ± 0.026
CTCACAGGGG | 3.62 ± 0.1
CTCACATGGG | 1.07 ± 0.028
CTCAGAAACA | 1.02 ± 0.013
CTCAGCCATT | 1.36 ± 0.039
CTCAGGACAG | 0.995 ± 0.044
CTCAGGCG | 1.17 ± 0.23
CTCAGGGCGT | 0.97546 ± 0.00044
CTCATAAGTT | 1.01 ± 0.028
CTCATACGGG | 1.05 ± 0.036
CTCATATGGA | 1.01 ± 0.048
CTCATGTAAG | 1.009 ± 0.0014
CTCATGTTGG | 0.983 ± 0.015
CTCCACGGGA | 1.144 ± 0.011
CTCCAGTCAG | 1.51 ± 0.055
CTCCATGGTT | 1.06 ± 0.024
CTCCCTGGGT | 1.401 ± 0.013
CTCCGTTAGT | 3.1 ± 0.065
CTCCTTGTCG | 1.014 ± 0.0077
CTCGAATGTA | 0.994 ± 0.014
CTCGAGGGTA | 1 ± 0.022
CTCGATAGGT | 0.984 ± 0.028
CTCGCGAATT | 1.55 ± 0.49
CTCGCTGCGG | 1.029 ± 0.0073
CTCGGACCTT | 1.19 ± 0.017
